In article PMC2189805 one finds percent of total cellular HuR bound data, which are given here for one substance.

The target of this assay is SETα (human (endogenous in HeLa)) (UniProt Q01105). Kind of assay: co-IP.
Sequence of UniProt Q01105 (Q01105 2-290): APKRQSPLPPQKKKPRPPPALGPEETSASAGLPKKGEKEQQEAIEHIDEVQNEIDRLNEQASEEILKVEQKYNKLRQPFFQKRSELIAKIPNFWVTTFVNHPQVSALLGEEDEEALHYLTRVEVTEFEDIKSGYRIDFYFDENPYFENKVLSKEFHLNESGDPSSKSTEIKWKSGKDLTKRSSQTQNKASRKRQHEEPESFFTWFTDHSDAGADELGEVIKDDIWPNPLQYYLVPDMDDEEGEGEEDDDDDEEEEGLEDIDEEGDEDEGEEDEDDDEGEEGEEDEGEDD

Substance “HuR (endogenous) (from UniProt Q15717 1-326) (natural protein)” displayed a percent of total cellular HuR bound of 5%.
